Positions of bridges follow the written chain, without caps; N, C: chain ends. No end group written: not given here.
Assays:
[1] = molecular target: TMEM16A-GFP fusion protein on HEK293 stable cells (UniProt Q5XXA6); experiment: flow cytometry on HEK293-TMEM16A cells
[2] = molecular target: SP31 (ab64085) Abcam rabbit monoclonal antibody against human TMEM16A; experiment: peptide pre-incubation of the antibody, western blot of TMEM16A
linear peptide 45_ECD1-3 = molecular target: T1, linear peptide 45_ECD1-3 (human); experiment: peptide microarray, linear peptide, Cy5 anti-rat IgG detection
T1 peptide: SRYKDYREPPWSENK
Procedure: (§1) Both set of peptides were printed on microarray slides in triplicate, incubated with the antibody of interest (12E11) and control antibodies. One is an incubation with an unrelated antibody from the same isotype (rat control IgG2b), the second using only the secondary antibody (anti-rat IgG (H+L) (JIR, 212-175-082) (Label Cy5)) to assess unspecific binding due to the detection antibody. The experiments are performed essentially as described in Maksimov P, et al. 2012, PLoS One 7:e34212. doi:10.1371/journal.pone. 0034212.
(§2) The determination of peptide-antibody binding was performed by RepliTope-analysis where the peptide microarray (triplicate) was incubated with the primary antibody followed by a fluorescently labelled secondary antibody directed against the Fc-part of the primary one. All steps were performed on a TECAN microarray processing station enabling highly reliable and reproducible washing and incubation steps. After performing the incubation steps and subsequent to the final washing steps (to remove the unbound secondary antibodies) the microarrays were dried using a nitrogen stream and scanned in a high resolution microarray scanning system with appropriate wavelength settings. Control incubations were performed with an unrelated antibody having the same isotype to exclude false positive signals.
(§3) The resulting images were analyzed and quantified using spot-recognition software GenePix (Molecular Devices). For each spot, the mean signal intensity was extracted (between 0 and 65535 arbitrary units). For further data evaluation, the MMC2 values were determined. The MMC2 equals the mean value of all three instances on the microarray. Except the coefficient of variation (CV)—standard-deviation divided by the mean value—is larger 0.5, in this case the mean of the two closest values (MC2) is assigned to MMC2.

linear peptide 44_ECD1-3 = molecular target: T2, linear peptide 44_ECD1-3 (human); experiment: as above
T2 peptide: VQISRYKDYREPPWS
Procedure: as §1, §2, §3

linear peptide 46_ECD1-3 = molecular target: T3, linear peptide 46_ECD1-3 (human); experiment: as above
T3 peptide: KDYREPPWSENKYDI
Procedure: as §1, §2, §3

[3] = molecular target: T4, cyclic peptide 45_ECD1-3 cys (human, disulfide 1-17 (inferred)); experiment: peptide microarray, cyclic peptide, Cy5 anti-rat IgG detection
T4 construct: Same 15-mer as linear peptide 45, flanked by cysteines; also called Peptide 45 (cyclic)
T4 peptide: CSRYKDYREPPWSENKC
Procedure: as §1, §2, §3

[4] = molecular target: T5, cyclic peptide 44_ECD1-3 cys (human, disulfide 1-17 (inferred)); experiment: as above
T5 construct: Same 15-mer as linear peptide 44, flanked by cysteines; also called Peptide 44 (cyclic)
T5 peptide: CVQISRYKDYREPPWSC
Procedure: as §1, §2, §3

[5] = molecular target: T6, cyclic peptide 46_ECD1-3 cys (human, disulfide 1-17 (inferred)); experiment: as above
T6 construct: Same 15-mer as linear peptide 46, flanked by cysteines; also called peptide 46 (cyclic)
T6 peptide: CKDYREPPWSENKYDIC
Procedure: as §1, §2, §3

TMEM16A-GFP fusion protein on HEK293 stable cells, sequence (Q5XXA6 whole entry, the tested form may be a part): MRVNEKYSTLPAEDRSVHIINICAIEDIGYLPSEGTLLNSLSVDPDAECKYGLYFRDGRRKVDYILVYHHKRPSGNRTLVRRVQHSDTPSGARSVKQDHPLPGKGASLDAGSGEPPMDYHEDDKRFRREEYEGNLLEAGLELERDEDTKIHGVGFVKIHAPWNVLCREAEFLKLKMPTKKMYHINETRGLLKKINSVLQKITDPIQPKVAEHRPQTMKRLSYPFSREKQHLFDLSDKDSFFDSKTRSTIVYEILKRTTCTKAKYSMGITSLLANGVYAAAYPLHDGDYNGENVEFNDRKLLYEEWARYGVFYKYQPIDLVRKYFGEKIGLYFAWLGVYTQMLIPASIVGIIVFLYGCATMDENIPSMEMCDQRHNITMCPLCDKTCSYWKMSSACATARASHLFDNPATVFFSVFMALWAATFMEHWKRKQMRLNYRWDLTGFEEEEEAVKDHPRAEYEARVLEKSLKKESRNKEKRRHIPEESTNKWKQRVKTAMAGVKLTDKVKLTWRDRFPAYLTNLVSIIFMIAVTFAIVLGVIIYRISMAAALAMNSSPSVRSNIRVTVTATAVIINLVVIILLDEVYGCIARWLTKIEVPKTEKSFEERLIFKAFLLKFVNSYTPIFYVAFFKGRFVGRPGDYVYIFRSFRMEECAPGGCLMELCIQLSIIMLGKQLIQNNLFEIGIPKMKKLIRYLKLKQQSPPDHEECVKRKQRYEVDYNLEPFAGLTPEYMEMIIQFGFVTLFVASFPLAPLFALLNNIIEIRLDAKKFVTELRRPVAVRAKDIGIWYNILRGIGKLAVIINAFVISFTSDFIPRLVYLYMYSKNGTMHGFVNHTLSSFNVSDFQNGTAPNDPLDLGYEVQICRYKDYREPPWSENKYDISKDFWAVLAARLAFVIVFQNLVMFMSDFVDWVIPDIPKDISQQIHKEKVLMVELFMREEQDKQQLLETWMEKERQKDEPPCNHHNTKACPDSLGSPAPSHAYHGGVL

“isotype control antibody (control for 12E11 in flow cytometry)” gave a median fluorescence intensity [1] of 93.

With DHEECVKRKQRYEVDYNLE [blocking Peptide #2] the peptide concentration that effectively blocked [2] was 0.01 µg/mL.

B1: 12E11 TMEM16A antibody (antibody, V domains shown)
VH: QVQLKESGPGLVQPSQTLTLTCTVSGFSLSNYDMHWVRQSPGKGLDWMGVIWGNGKTQYNSGLTSRLSISRDTSKSQVFLKMNSLQTEDTAIYFCTRSGYYYDGSYYSLFDYWGQGVMVTVSS
VL: DVVLTQTPPTLSATIGQSVSISCRSSQSLLHSNGNTYLNWLLQRPGQPPQLLIYLVSRLESGVPNRFSGSGSGTDFTLKISGVEAEDLGVYYCVQSTHAPAFGGGTKLELK
notes: Rat hybridoma monoclonal made by genetic immunization; The same-isotype control was rat IgG2b, which implies a rat IgG2b constant region
With B1 the “Signal intensity after subtraction of control signal (AU)” value (shortened to “Signal intensity after subtraction”) (linear peptide 45_ECD1-3) was 27300 AU, the “Signal intensity after subtraction” value (linear peptide 44_ECD1-3) was 36800 AU and the “Signal intensity after subtraction” value (linear peptide 46_ECD1-3) was 15100 AU. For the same molecule, the “Signal intensity after subtraction” value [3] was 56600 AU, the “Signal intensity after subtraction” value [4] was 55900 AU and the “Signal intensity after subtraction” value [5] was 24800 AU.

— patent publication US20130323252A1 (Novartis, published 2013)
